Measurements published in paper PMC5827659.

Legend:
Assay in all cases: FRET (FIRE system)
[1] = target: FIRE construct Y-TMG-/C-TMG-CC1 L251S R304W, Q13586-1; conditions: HEK 293 cells; n=39; parent: est. 0.084; read off a plot
[2] = target: FIRE construct Y-TMG-/C-TMG-CC1 R304K, Q13586-1; conditions: HEK 293 cells; n=52; parent: est. 0.084; read off a plot
[3] = target: FIRE construct Y-TMG-/C-TMG-CC1α1α2 L251S R304W, Q13586-1; conditions: HEK 293 cells; n=9; parent: est. 0.077; read off a plot
[4] = target: FIRE construct Y-TMG-/C-TMG-CC1α1α2 R304K, Q13586-1; conditions: HEK 293 cells; n=18; parent: est. 0.077; read off a plot
Sequence of FIRE construct Y-TMG-/C-TMG-CC1α1α2 R304K, Q13586-1 (Q13586 whole entry R304K, looked up): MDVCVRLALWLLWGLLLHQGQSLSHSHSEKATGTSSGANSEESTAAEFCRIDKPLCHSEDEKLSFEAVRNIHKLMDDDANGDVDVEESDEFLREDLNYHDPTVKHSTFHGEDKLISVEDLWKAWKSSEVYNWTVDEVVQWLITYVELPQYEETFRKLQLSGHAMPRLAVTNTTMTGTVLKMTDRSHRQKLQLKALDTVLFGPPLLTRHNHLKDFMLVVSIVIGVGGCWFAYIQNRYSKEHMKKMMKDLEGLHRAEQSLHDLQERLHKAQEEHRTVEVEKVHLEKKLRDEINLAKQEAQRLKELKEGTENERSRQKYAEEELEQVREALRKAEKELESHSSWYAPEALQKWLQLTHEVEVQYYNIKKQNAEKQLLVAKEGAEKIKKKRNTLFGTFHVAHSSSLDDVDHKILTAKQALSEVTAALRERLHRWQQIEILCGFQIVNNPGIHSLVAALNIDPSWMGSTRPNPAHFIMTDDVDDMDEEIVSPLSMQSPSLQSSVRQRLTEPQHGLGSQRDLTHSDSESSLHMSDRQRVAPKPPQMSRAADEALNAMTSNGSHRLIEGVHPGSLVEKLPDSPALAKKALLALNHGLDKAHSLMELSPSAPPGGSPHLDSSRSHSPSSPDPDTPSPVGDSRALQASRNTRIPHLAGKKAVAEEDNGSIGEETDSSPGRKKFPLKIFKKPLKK

Sequence of FIRE construct Y-TMG-/C-TMG-CC1 R304K, Q13586-1 (Q13586 whole entry R304K, looked up): as above
Sequence of FIRE construct Y-TMG-/C-TMG-CC1α1α2 L251S R304W, Q13586-1 (Q13586 whole entry L251S/R304W, looked up): as the sequence (Q13586 whole entry R304K, looked up) above, with L251S, K304W counted along it
Sequence of FIRE construct Y-TMG-/C-TMG-CC1 L251S R304W, Q13586-1 (Q13586 whole entry L251S/R304W, looked up): as the sequence (Q13586 whole entry R304K, looked up) above, with L251S, K304W counted along it

“FIRE construct Y-TMG-/C-TMG-CC1 (STIM1 CC1 233–343) wild type (from UniProt Q13586-1) L251S; R304W” showed a response [1] of 0.096 Eapp.
In the case of “FIRE construct Y-TMG-/C-TMG-CC1 (STIM1 CC1 233–343) wild type (from UniProt Q13586-1) R304K”, the response [2] is reported as 0.074 Eapp.
“FIRE construct Y-TMG-/C-TMG-CC1α1α2 (STIM1 233–309) wild type (from UniProt Q13586-1) L251S; R304W” gave a response [3] of 0.091 Eapp.
“FIRE construct Y-TMG-/C-TMG-CC1α1α2 (STIM1 233–309) wild type (from UniProt Q13586-1) R304K” was tested, and the response [4] was 0.06 Eapp.
